In US20120003180A1 one finds koff, affinity relative to non-mutated DV (fold of the affinity of non-mutated DV) and Kd data, which are given here for two substances.

A word on the koff: it is the first-order rate constant of dissociation. Low values mean a long-lived complex, high ones a short-lived complex. In general, Kd refers to the equilibrium constant for the complex coming apart. A high value points to lower affinity.

Test [1] addresses α5β1 integrin protein, covalently immobilised on the optical biosensor cuvette. Description: optical biosensor (IAsys), α5β1 immobilised, D3904A DV free in solution.
The target is the same in test [2]. Description: optical biosensor (IAsys), α5β1 immobilised.
The target is the same in test [3]. Description: optical biosensor (IAsys), α5β1 immobilised, D3904A DV free in solution; Kd from Koff/Kon.
For test [4] the target is unchanged. Description: optical biosensor (IAsys), α5β1 immobilised, LG3 free in solution.
The target is the same in test [5]. Description: optical biosensor (IAsys), α5β1 immobilised, LG3 free in solution; Kd from Koff/Kon.

“D3904A DV (perlecan Domain V with DGR mutated to AGR), C-terminal 6×His tag (from UniProt P98160 3687-4391) (ligand)”: the koff in test [1] was 0.22 s⁻¹. Besides, the affinity relative to non-mutated DV (fold of the affinity of non-mutated DV) in test [2] was less than 0.5. In addition, in test [3], the Kd came out at 0.37 µM.
Take “LG3, the C-terminal fragment of perlecan Domain V, with C-terminal 6×His tag (from UniProt P98160 4197-4391) (ligand)”: the dissociation rate constant (koff) in test [4] was 1.7 s⁻¹. In test [5], this substance showed a Kd of 1000 µM.
